Experimental data from patent US20120088715A1 (UNIVERSITE PARIS SUD XI, published 2012).

Molecular target: T1, factor Xa (UniProt P00742 41-179; P00742 235-488, limits assumed)
T1 construct: Bought enzyme; The active enzyme has a light and a heavy chain cut from that precursor; also called FXa
Test: discontinuous chromogenic substrate assay of FXa inhibition with pentasaccharide, against plasma AT
Procedure: The pentasaccharide is added in excess in the reaction media so that every tested antithrombin is bound to the pentasaccharide. In the absence of pentasaccharide, polybrene (100 μg/ml final) is added in order to neutralize any sulfated glycosaminoglycan that may be present in the reaction media. […] The analysis of the data is performed using the GraphPad Prism version 3 software. Absorbance recording is continuous or discontinuous according to the expected inhibition rate constant (kon).
When the expected kon is lower than 10⁴ M⁻¹.s⁻¹ the discontinuous method is used. […] At the end of this incubation period, 190 μl of kinetic buffer containing 200 μM substrate is added and absorbance at 405 nm is recorded.

T1 sequence (P00742 41-179 limits assumed, form in doubt, chain 1 of 2): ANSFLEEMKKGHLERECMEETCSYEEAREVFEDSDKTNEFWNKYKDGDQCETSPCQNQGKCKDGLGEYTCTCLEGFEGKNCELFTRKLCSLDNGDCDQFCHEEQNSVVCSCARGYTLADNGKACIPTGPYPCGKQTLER
T1 sequence (P00742 235-488 limits assumed, form in doubt, chain 2 of 2): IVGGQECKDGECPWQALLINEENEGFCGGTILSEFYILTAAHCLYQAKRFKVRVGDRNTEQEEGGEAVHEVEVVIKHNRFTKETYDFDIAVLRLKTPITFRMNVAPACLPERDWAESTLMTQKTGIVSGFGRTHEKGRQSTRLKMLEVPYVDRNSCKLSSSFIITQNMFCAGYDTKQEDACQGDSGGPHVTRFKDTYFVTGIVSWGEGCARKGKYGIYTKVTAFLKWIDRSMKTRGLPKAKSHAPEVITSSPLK

fold lower kon than plasma AT: ≥ 7600 fold
B1: AT-N135Q-Pro394 (other)
chain: HGSPVDICTAKPRDIPMNPMCIYRSPEKKATEDEGSEQKIPEATNRRVWELSKANSRFATTFYQHLADSKNDNDNIFLSPLSISTAFAMTKLGACNDTLQQLMEVFKFDTISEKTSDQIHFFFAKLNCRLYRKAQKSSKLVSANRLFGDKSLTFNETYQDISELVYGAKLQPLDFKENAEQSRAAINKWVSNKTEGRITDVIPSEAINELTVLVLVNTIYFKGLWKSKFSPENTRKELFYKADGESCSASMMYQEGKFRYRRVAEGTQVLELPFKGDDITMVLILPKPEKSLAKVEKELTPEVLQEWLDELEEMMLVVHMPRFRIEDGFSLKEQLQDMGLVDLFSPEKSKLPGIVAEGRDDLYVSDAFHKAFLEVNEEGSEAAASTAVVIAGRPSLNPNRVTFKANRPFLVFIREVPLNTIIFMGRVANPCVK
